Read-outs that look alike come from different tables or passages of the source. Blank lines part the entries; values can stand above or below the substance they belong to.
How the values were obtained:
[1] = biological target: T1, NTHi SapA (Haemophilus influenzae, UniProt Q4QL73); experiment: SPR single-cycle kinetics, SapA over immobilized AMPs; type: binding, nontypeable Haemophilus influenzae; conditions: LL-37 immobilized on SPR sensor chip, five increasing SapA concentrations
T1 sequence (Q4QL73 32-546): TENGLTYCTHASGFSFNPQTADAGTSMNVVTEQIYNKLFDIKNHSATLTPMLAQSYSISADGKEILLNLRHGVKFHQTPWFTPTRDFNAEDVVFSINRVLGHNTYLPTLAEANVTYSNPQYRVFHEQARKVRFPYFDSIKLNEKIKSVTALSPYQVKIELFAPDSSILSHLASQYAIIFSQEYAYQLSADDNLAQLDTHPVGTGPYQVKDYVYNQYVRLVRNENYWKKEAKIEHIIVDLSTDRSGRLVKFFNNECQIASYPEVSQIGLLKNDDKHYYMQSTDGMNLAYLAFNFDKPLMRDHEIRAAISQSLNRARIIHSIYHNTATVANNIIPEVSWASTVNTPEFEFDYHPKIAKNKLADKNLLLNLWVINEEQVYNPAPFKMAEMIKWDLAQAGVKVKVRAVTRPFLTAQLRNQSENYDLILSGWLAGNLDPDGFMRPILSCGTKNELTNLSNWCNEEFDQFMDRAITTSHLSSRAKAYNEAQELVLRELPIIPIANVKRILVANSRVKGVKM

[2] = biological target: T1, NTHi SapA; experiment: Spectral shift assay with fluorescently labeled SapA; type: binding, nontypeable Haemophilus influenzae; conditions: peptide up to 100 or 500 μM, triplicate
[3] = tested on: NTHi strain 86–028NP (parent strain); experiment: Bactericidal assay, parental strain; type: cell-based, nontypeable Haemophilus influenzae; conditions: 10 μg/mL AMP, 1 h
[4] = tested on: NTHi 86–028NP ΔsapA mutant; experiment: Bactericidal assay, ΔsapA mutant; type: cell-based, nontypeable Haemophilus influenzae; conditions: 10 μg/mL AMP, 1 h
[5] = Dynamic light scattering of LL-37; type: physicochemical; conditions: LL-37 at 1 mg/mL; data not shown
[6] = at the concentrations used for affinity experiments; cited from earlier work
[7] = biological target: hBD-2_(loop) peptide (C2–C4 loop region of hBD-2 with C-terminal linker) (human); experiment: SPR
[8] = biological target: hBD-3_(loop) peptide (C2–C4 loop region of hBD-3 with C-terminal linker) (human); experiment: SPR
[9] = biological target: hNP-1_(loop) peptide (C2–C4 loop region of hNP-1 with C-terminal linker) (human); experiment: SPR
[10] = biological target: hBD-2_(loop) peptide (C2–C4 loop region of hBD-2 with C-terminal linker) (human); experiment: SPR; remark: listed apart in the source
[11] = biological target: hBD-3_(loop) peptide (C2–C4 loop region of hBD-3 with C-terminal linker) (human); experiment: SPR; remark: listed apart in the source
[12] = biological target: hNP-1_(loop) peptide (C2–C4 loop region of hNP-1 with C-terminal linker) (human); experiment: SPR; remark: listed apart in the source
[13] = biological target: human α-defensin 1 (hNP-1) (human); experiment: SPR
[14] = biological target: human β-defensin 2 (hBD-2) (human) (UniProt O15263); experiment: SPR
[15] = biological target: human β-defensin 3 (hBD-3) (human) (UniProt P81534); experiment: SPR
[16] = cited from earlier work

human β-defensin 3 (hBD-3) (human), sequence (P81534 23-67): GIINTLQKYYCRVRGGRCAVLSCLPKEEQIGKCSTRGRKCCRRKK
human β-defensin 2 (hBD-2) (human), sequence (O15263 24-64): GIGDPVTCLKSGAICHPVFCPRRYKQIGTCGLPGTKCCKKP

- ka1 (two-state model, first step) [7]: 760000 M⁻¹ s⁻¹
- ka2 (two-state model, second step) [7]: 0.0095 s⁻¹
- kd1 (two-state model, first step) [7]: 0.034 s⁻¹
- kd2 (two-state model, second step) [7]: 0.00024 s⁻¹
- ka1 (two-state model, first step) [8]: 280000 M⁻¹ s⁻¹
- ka2 (two-state model, second step) [8]: 0.012 s⁻¹
- kd1 (two-state model, first step) [8]: 0.028 s⁻¹
- kd2 (two-state model, second step) [8]: 0.00012 s⁻¹
- Kd [9]: 3.8 nM
- ka1 (two-state model, first step) [9]: 880000 M⁻¹ s⁻¹
- ka2 (two-state model, second step) [9]: 0.0064 s⁻¹
- kd2 (two-state model, second step) [9]: 0.00045 s⁻¹
- Kd [10]: 9.5 nM
- ka1 (two-state model, first step) [10]: 750000 M⁻¹ s⁻¹
- ka2 (two-state model, second step) [10]: 0.0024 s⁻¹
- kd1 (two-state model, first step) [10]: 0.019 s⁻¹
- kd2 (two-state model, second step) [10]: 0.0014 s⁻¹
- Kd [11]: 17.2 nM
- ka2 (two-state model, second step) [11]: 0.004 s⁻¹
- kd1 (two-state model, first step) [11]: 0.033 s⁻¹
- kd2 (two-state model, second step) [11]: 0.003 s⁻¹
- Kd [12]: 17.1 nM
- ka2 (two-state model, second step) [12]: 0.0026 s⁻¹
- kd1 (two-state model, first step) [12]: 0.023 s⁻¹
- kd2 (two-state model, second step) [12]: 0.0019 s⁻¹
- Kd [13]: 4 nM
- ka1 (two-state model, first step) [13]: 360000 M⁻¹ s⁻¹
- ka2 (two-state model, second step) [13]: 0.0061 s⁻¹
- kd1 (two-state model, first step) [13]: 0.012 s⁻¹
- kd2 (two-state model, second step) [13]: 0.00069 s⁻¹
- Kd [14]: 17.5 nM
- ka1 (two-state model, first step) [14]: 630000 M⁻¹ s⁻¹
- ka2 (two-state model, second step) [14]: 0.013 s⁻¹
- kd1 (two-state model, first step) [14]: 0.047 s⁻¹
- kd2 (two-state model, second step) [14]: 0.0026 s⁻¹
- Kd [15]: 10.5 nM
- ka1 (two-state model, first step) [15]: 710000 M⁻¹ s⁻¹
- ka2 (two-state model, second step) [15]: 0.0059 s⁻¹
- kd1 (two-state model, first step) [15]: 0.019 s⁻¹
- kd2 (two-state model, second step) [15]: 0.0022 s⁻¹
Substance: NTHi SapA (residues 32–546), wild type (from UniProt Q4QL73 32-546) (natural protein)

- affinity to labeled SapA, result in words [2]: completely abolished affinity
Substance: SSYGT [hNP-1SSYGT]

- affinity to labeled SapA, result in words [2]: completely abolished affinity
Substance: SSYKQ [hBD-2SSYKQ]

Continued, substance first:

Substance: LL-37: alpha helical peptide, the only member of the cathelicidin family found in humans
- SapA binding to LL-37 (SPR), result in words [1]: low affinity
- affinity to labeled SapA, result in words [2]: low affinity
- survival of the parent strain at 10 μg/mL [3]: neither the parent strain nor the ΔsapA mutant survived
- survival of the ΔsapA mutant at 10 μg/mL [4]: neither the parent strain nor the ΔsapA mutant survived
- aggregation by dynamic light scattering [5]: aggregated at high concentrations
- oligomeric state in solution [6]: higher order oligomers

Substance: PR-39
- net charge [16]: +10

Substance: PSSEQ [hBD-3PSSEQ]
- affinity to labeled SapA, result in words [2]: completely abolished affinity

Substance: protamine
- net charge [16]: +21
